Results reported in patent US11986450B2, “Methods and compositions for treating infection and inflammation with selenocyanate” (National Jewish Health, priority 2017, dated 2024).

Substrate: N#CSO
Assay: Kinetic analysis of HOSCN metabolism
Type: biochemical
Conditions: other: recombinant mouse Sec-TrxR
Source text: FIGS. 3A-3B. Kinetic analysis of HOSCN metabolism by recombinant mouse Sec-TrxR and recombinant E. coli Cys-TrxR. […] Sec-TrxR forms that lack a selenocysteine (Sec489Cys) or truncated by the last 8 amino acids (D8) had diminished activity.

B1: recombinant mouse Sec-TrxR (Mus musculus) (protein)
chain: GGQQSFDLLVIGGGSGGLACAKEAAQLGKKVAVADYVEPSPRGTKWGLGGTCVNVGCIPKKLMHQAALLGGMIRDAHHYGWEVAQPVQHNWKTMAEAVQNHVKSLNWGHRVQLQDRKVKYFNIKASFVDEHTVRGVDKGGKATLLSAEHIVIATGGRPRYPTQVKGALEYGITSDDIFWLKESPGKTLVVGASYVALECAGFLTGIGLDTTVMMRSIPLRGFDQQMSSLVTEHMESHGTQFLKGCVPSHIKKLPTNQLQVTWEDHASGKEDTGTFDTVLWAIGRVPETRTLNLEKAGISTNPKNQKIIVDAQEATSVPHIYAIGDVAEGRPELTPTAIKAGKLLAQRLFGKSSTLMDYSNVPTTVFTPLEYGCVGLSEEEAVALHGQEHVEVYHAYYKPLEFTVADRDASQCYIKMVCMREPPQLVLGLHFLGPNAGEVTQGFALGIKCGASYAQVMQTVGIHPTCSEEVVKLHISKRSGLEPTVTGCUG
Protein B1 has a Km of 30 µM.
